# B1: TaGalU (Thermocrispum agreste) (protein)
# chain: MTASAEHQTFTTAIVPAAGLGTRFLPTTKSVPKELLPVVDTPAIELVADEARQAGAERLVIVTSPAKQSIAAYFRPAPELERSLEEKGKTGQLAKIRRAPELLEVEVAIQEQALGLGHAVACAEPNLGPEDDVVAVLLPDDLVLPHGILERMAKVRAEHGGSVLCAFDIPKEEISAYGVFDVSDTDDADVKRVHGMVEKPPAEQAPSTFAAAGRYLLDRAIFDALRRIEPGAGGELQLTDAVALLIQEGHPVHVVVHRGVRHDLGNPGDFLRAAVDFALQDPDYGPELRAWLTDRIARP
# notes: full-length, N-terminal His10 tag (pET16bP, no cleavage mentioned), codon-optimized gene (911 bp insert), expressed in E. coli BL21(DE3) pLysS; theoretical mass 33,678 Da; hexamer of about 193 kDa by SEC; EC 2.7.7.9
# What was measured:
# purified protein [1] = substrate: O=P(O)(O)O[C@H]1O[C@H](CO)[C@@H](O)[C@H](O)[C@H]1O; assay: purified protein; assay type: biochemical, Thermocrispum agreste; details: free enzyme, 0.01-45 mM G1P, 2 mM UTP, 3 mM MgCl2, 50 mM Hepes, pH 7.0, 50°C
# purified protein [2] = substrate: O=c1ccn([C@@H]2O[C@H](COP(=O)(O)OP(=O)(O)OP(=O)(O)O)[C@@H](O)[C@H]2O)c(=O)[nH]1; assay: purified protein; assay type: biochemical, Thermocrispum agreste; details: free enzyme, 0.05-6 mM UTP, 30 mM G1P, 3 mM MgCl2, 50 mM Hepes, pH 7.0, 50°C
protein,measurement,setting,value
B1,Km,purified protein [1],0.44 mM
same,Vmax,purified protein [1],1110 µmol/min/mg
same,kcat,purified protein [1],598 s⁻¹
same,kcat/Km,purified protein [1],1.36e+06 M⁻¹ s⁻¹
same,Km,purified protein [2],0.15 mM
same,Vmax,purified protein [2],1700 µmol/min/mg
same,kcat,purified protein [2],914 s⁻¹
same,kcat/Km,purified protein [2],6.09e+06 M⁻¹ s⁻¹

# Source: publication PMC7343719, “Immobilization of the Highly Active UDP-Glucose Pyrophosphorylase From Thermocrispum agreste Provides a Highly Efficient Biocatalyst for the Production of UDP-Glucose” (Frontiers in Bioengineering and Biotechnology, 2020)
